Assay: label from the status in PepcDB records

Sequence | protein production
MAVLYAGRPVQKCERSRLMFNIDQPDSAPDNEDHDGDVVMHGQGSFFGRRKGHKLRAHQADLIENLLPHLSLQIDSPAPEPLTTLFDPPVEHMRLEIGFGGGEHLIAEALAHPDTGFIGAEPYVNGMAKILARIEAENIRNIRLFAGDASELLAWVPAGSLARIDLIHPDPWPKRRHWKRRFVQDATVAAMARALTPHGEFRFVCDIDGYTAWTLAHLLRAPCFDWLAQRADDWRKPWPNYTMTRYGRKAEREGRRANYLRFERL | failed
MAVQLLENWLLKEQEKIQTKYRHLNHISVVEPNILFIGDSIVEYYPLQELFGTSKTIVNRGIRGYQTGLLLENLDAHLYGGAVDKIFLLIGTNDIGKDVPVNEALNNLEAIIQSVARDYPLTEIKLLSILPVNEREEYQQAVYIRSNEKIQNWNQAYQELASAYMQVEFVPVFDCLTDQAGQLKKEYTTDGLHLSIAGYQALSKSLKDYLY | not failed
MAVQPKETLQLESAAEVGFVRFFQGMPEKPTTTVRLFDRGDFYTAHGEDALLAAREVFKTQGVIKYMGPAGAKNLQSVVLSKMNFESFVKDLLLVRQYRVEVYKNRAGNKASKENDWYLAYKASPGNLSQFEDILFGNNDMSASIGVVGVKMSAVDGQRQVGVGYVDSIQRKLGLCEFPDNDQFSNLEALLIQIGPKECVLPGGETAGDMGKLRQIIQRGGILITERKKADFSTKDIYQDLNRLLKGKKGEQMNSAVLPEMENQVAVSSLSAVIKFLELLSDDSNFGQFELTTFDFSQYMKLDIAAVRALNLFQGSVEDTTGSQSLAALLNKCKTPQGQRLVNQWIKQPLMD | failed
MAVQRVQETQRHSSRVLVPQHAGQFHPVGLRHLSTGPGLHRRSVLRSARVLAKSSIDQPPGQHAQGAVMLRTPFSPRLEGWLLVALAVLLIGAGLGMRQPQNVDEERFLGVALEMLQNGSWFVPHRAAEIYADKPPLFMWTVAFFIWLTGSPNIALYLPGLLSAGTITAVLYDLGNRLWERRIGRYAALLFLATYQTYSILRTGQIDSFLCLWVALGFYGLVRHLLLGPAWGWFYFSCAAMGLGIISKGVGFVPALMLIPYAYAVRKNWHGVVRMPGQAARWALGLLVTLIACCLWLVPMVISVVRDGGPEGFAYLHEILLHQTANRYASAWDHREPFWYFLVNVIPQYWLPLVFALPWLIPAWRRQLSKQDGRVLVLLGWVLLVLLFFSLSSGKRKLYIFPALPGLVLVAAPLVPWLLRRWFRERVLARRIVPTIVVVWLALWFARGFIEPVVEGENPHKELMEQAAEVTHGADLVLVNWREGHWLYARQPMVHFGFAHALANERAASWLREHPGTFALVPGELLANCFLPEKAHPLGKTSRADWFLVDAQADNGVCRPERPPEVYRFAWKQNAQ | failed
MAVRQVTVGYSDGTHKTMPVRCDQTVLDAAEEHGVAIVNECQSGICGTCVATCTAGRYQMGRTEGLSDVERAARKILTCQTFVTSDCRIELQYPVDDNAALLVTGDGVVTAVELVSPSTAILRVDTSGMAGALRYRAGQFAQLQVPGTNVWRNYSYAHPADGRGECEFIIRLLPDGVMSNYLRDRAQPGDHIALRCSKGSFYLRPIVRPVILVAGGTGLSAILAMAQSLDADVAHPVYLLYGVERTEDLCKLDELTELRRRVGRLEVHVVVARPDPDWDGRTGLVTDLLDERMLASGDADVYLCGPVAMVDAARTWLDHNGFHRVGLYYEKFVASGAARRRTPARLDYAGVDIAEVCRRGRGTAVVIGGSIAGIAAAKMLSETFDRVIVLEKDGPHRRREGRPGAAQGWHLHHLLTAGQIELERIFPGIVDDMVREGAFKVDMAAQYRIRLGGTWKKPGTSDIEIVCAGRPLLEWCVRRRLDDEPRIDFRYESEVADLAFDRANNAIVGVAVDNGDADGGDGLQVVPAEFVVDASGKNTRVPEFLERLGVGAPEAEQDIINCFYSTMQHRVPPERRWQDKVMVICYAYRPFEDTYAAQYYTDSSRTILSTSLVAYNCYSPPRTAREFRAFADLMPSPVIGENIDGLEPASPIYNFRYPNMLRLRYEKKRNLPRALLAVGDAYTSADPVSGLGMSLALKEVREMQALLAKYGAGHRDLPRRYYRAIAKMADTAWFVIREQNLRFDWMKDVDKKRPFYFGVLTWYMDRVLELVHDDLDAYREFLAVVHLVKPPSALMRPRIASRVLGKWARTRLSGQKTLIARNYENHPIPAEPADQLVNA | failed
MAVVSHGGFRAAARALDVSQGGLTKSIAALEQEYGVDLIERSAKGVLLTPKGAAFVPLARAIVEEAERAEGWLRAQSGELSTSVSLGVSIEPSIRLAPAVLRDFRKALPDTSVHLTQGVALDLLGALRENRIELAVIRLPRNFDSSDLKVQRLYQSEPVIVGRAGHPGAGAASLRELVKYDWVVVGDTSRQGAMNDDSIWELFDREGLGRPRFAAVCNSLLSIVAMLMESDALARVPRALLDHSLARRNLIPIPVAEPPVPYWIATVHKASRRLSPEAQTLNAMLSSYARISGALSPERRPGEP | failed
MAWMFLLLAAAFEVTFAMGMKYAEGFTRPWPSLLTVVAAVGGIYFLTLAMRELPVSVAYPIWTAIGSLGTVLLGCLLLGESLTAVKLVSVGLIVAGVAGLK | failed
MAWRVGIAPLMTPSTPLWPGREPVYRSAALSSMEPGRPRGQQGTELGMPAGAPLRRGIGGGPGLDVRRRDLGAVAAAHQHAILGPAQVGDAHGEPDPDRGQRDGEGERGDVGEHAVAEIVRLGARLLVARQVERLGRAAHRLHGAVAPVDRRGGGGARPELEHPVLLIRAYGPLGFHGARITPKQRFLIAYVVNALQKIFSTRTCIALLHDLFAKARDSGRHAGVRMRGVALQNSHGTCRARSREHRLVISLCAPNAFCRRKAHGIIMEPGPPVATNNVRGSSTMTTNAREPRVHPVPILSLRPTQMTVGMREVKEKRKRWREHDSKKQADLLGKHMIPVVYGPDKRYYVIDHHHLGRALHDEGVKEVLVTVVGDLRMVEREAFWGVMDNKRWVYPYDSKGERRPFRDLPKSVADLRDDPFRSLAGELRRLGGFAKDTTPFSEFLWADYLRRKLSRKAVDANFDKALEKALSAAKSKDAIYLPGWCGPADDD | failed
MAWYEGAFFYQIFPDRFFRAGPPGRPAPAGPFEPWEAPPTLRGFKGGTLWGVAEKLPYLLDLGVEAIYLNPVFASTANHRYHTVDYFQVDPILGGNEALRHLLEVAHAHGVRVILDGVFNHTGRGFFAFQHLMENGEQSPYRDWYHVKGFPLKAYTAHPNYEAWWGNPELPKLKVETPAVREYLLAVAEHWIRFGVDGWRLDVPNEIPDPTFWREFRQRVKGANPEAYIVGEIWEEADFWLQGDMFDAVMNYPLARAVLGFVGGEALDRDLAAQTGLGRIEPLQALAFSHRLEDLFGRYRPEVVRAQMNLLTSHDTPRLLSLMRGSVERARLALALLFLLPGNPTVYYGEEVGMAGGKDPENRGGMVWEEARWQKDLRETVKRLARLRKEHPALRTAPYLRIYAQDGHLAFARGPYLAVVNASPHPFRQDFPLHGVFPRGGRAVDLLSGEVCTPQGGRLCGPVLPPFSLALWREA | not failed
MAYEERRSSILDSFSLSPLPYPVLLILAVASVFLLSSWYFSLEEAAESAEEQINFALLLIPLFLIVLVRWLSSMENPDALLGMFSSSRRTTYVSPGAGGDGGSSPWGVAALIVLLLVLLQYQSSFLEMWSG | failed
MAYLEVLRYLYHKRPMGKVKPGLERISMLLSKLGNPHLEYKTIHIGGTNGKGSVANMVSNILVSQGYRVGSYYSPHLSTFRERIRLNEEYISEEDVVKIYETMEPILNELDKEEIFSPSFFEVVTAMAFLYFAEKNVDIAVLEVGLGGRLDATNVVFPLCSTIVTVDRDHEKTLGYTIEQIAWEKSGIIKERVPLVTGERKREALKVMEDVARKKSSRMYVIDKDFSVKVKSLKLHENRFDYCGENTFEDLVLTMNGPHQIENAGVALKTLEATGLPLSEKAIREGLKNAKNLGRFEILEKNGKMYILDGAHNPHGAESLVRSLKLYFNGEPLSLVIGILDDKNREDILRKYTGIFERVIVTRVPSPRMKDMNSLVDMAKKFFKNVEVIEDPLEAIESTERATVVTGSLFLVGYVREFLTTGKINEEWKL | not failed
MAYREKDTKKWTAQWFETNVMGEKKKRRKRGFETKREALEFERSKKLSNERSMDMKLSDFIEIYFSDKQNDLKDRTIKNKRYMMQQHIVPYFGNQMMSEIKASQIIQWQNEIQKKGYSDSYLRMIQNQLTSLFTHAAKIYDLPVNPCKKVKRMGNSDSRSLNFWTLDEYKQFIQTMEPGTRYYLMFEMLFWTGCRIGELLAITKADINFEKNQLSINKTYYRTGMQDIITEPKTKQSFRTIEIPEFLKEEIKEFVDGHYGMPDTERLFPVVQEAVQHKMKRQIELAGVKKIRVHDIRHSHVAYLIEKGVEPLLIRDRLGHKDIRITLNTYGHLYPNQQRKIANLLDNENGNAVTGLGEERDEC | failed
MAYSLSPKKAGLPREVLKWLQSLDLSFFPKNVRRDFSNGYLVAEVFSWYFPRDFQMHSFDNGTSLAAKQSNWSQIEKFFVKQNISLVKEMIDGTIHCKPGAAELLVQEIYTILTNRSIQAIQRVEQGFTDKPYQDQLPMVARATASVSIKSNLSLTEVKAEPNIITNQRKVLAIIHRHLEQRKEERVQDPKRFNVKPTLGEQAVRLLAHQHEPNLQMNTSQAAC | failed
MAYSPSLNDIKSILNKYTSKDYELKCENRYDGKLELWLKGVFEEIVKTPGTRYVTHKQLDEKLKNFVTKTEFKEFQTVVMESFAVQNQNIDAQGEQIKELQVEQKAQGKTLQLILEALQGINKRLDNLESK | failed
MCAADHSREQVMRIGEVASRAGVSVRSVRYYEDQGLLASTRSAGGQRQYTEHEVERVQFLQRLYAAGLSSRTIAELLPCVDAPSEVHSDAALERMAQERDRLTEHIADLVRTRDALNALMTAAREYRDAQFA | failed
MCAPKRGRSQQFITTVIVCWRMASFSFRIEVRLSDAERRPTMRQQLFSTLTVLVALVGLSRAVVAQPMAIATLTPPELQELQRLVPRSAEDYYNLGLMHQGRGDLAAAIDAFSQAIKLNPSADYYFARGLAYYDQGDMQRAIADFTTALGDDPQFIAAYYNRGMAYLALQNYDAAIADFDAALARDPQFVAAYYSRGMAHFDRGNVELAQRDYERARALNPAMTAQYYDRAPRPLTGGP | failed
MCASKRSFFMSNSKFNVRLLTEIAFMAALAFIISLIPNTVYGWIIVEIACIPILILSFRRGLTAGLVGGLIWGILSMITGHAYILTLSQAFLEYLIAPVSLGIAGLFRQKTASLKLVPVLLGTFVAVLLKYFFHFIAGIIFWSQYAWKGWGAVAYSLAVNGISAILTAIAAFVILIIFVKKFPKLFIYSNY | failed
MCEGHTRNDPCERRHDPGARVRRKAGKIRSMILVFFSLCLGALIGALFRFPWYMLFLLAAIFWKRNKDISVVIFFTLLSASLYQIGTLPAGNYELVGYAERGRLKQVKVFQEEWKRIHPVRIETSEEGYVYAIGYFDGKAFHPSYLKKVEKPSLKTLKESFSGMANGTVLSVLFGEKNGDIYRSGLGHFFAVSGLHVGIAFSLYTTLLSFLTWRRTYQELTALLLLVPYVIAVGTPSVIRAYLTIFLWVAFKIFGFRTTPLHTTATVGSFMMIVDPTVVFTPSFLLSFFVTLCILESKNIFELTVKAYLSALPFLCLFFGGTNMSALVLSIPVSLLMIPVTWLAHLSFLLFLLGLKTSALIAAKITNIVSLPLNGFIKLANLLPEVPLPQYLYFILIFFPLLFLSPDIRDIFRKISGRAIL | failed
MCEKTAGDESGRRISRRAGNGEAGRLRSLSRLFDHFATAVTRWTGSPIAFSGACAAILAWASTGPLFGYSEVWQLVVNTGTTIVTFLMVFLIQQAQNKDSRALHVKLDELLVAVNGADVALAEAENLDDDRLLELADAYAARARRLVEHSTQRQRRDRGAEPEVGAARTRLARRPPGARARRHARLCWWQKQYARQRQGGDT | failed

Reference: a protein production outcome set (Wang et al. 2014)
